Data reported in PMC4233993, “Comparison of three tannases cloned from closely related lactobacillus species: L. Plantarum, L. Paraplantarum, and L. Pentosus” (BMC Microbiology, 2014).

How the values were obtained:
Experiment in all cases: HPLC of reaction products, Hanes-Woolf plot
Details in all cases: 50 mM Tris-HCl pH 8.0, 37°C, 33 nM enzyme
COC(=O)c1cc(O)c(O)c(O)c1 [1] = system: T1, COC(=O)c1cc(O)c(O)c(O)c1; type: biochemical, Lactiplantibacillus paraplantarum
T1 construct: full ORF (1410 bp, 469 residues, 50,708 Da), C-terminal His tag, fused to YbdK signal peptide in pBE-S, expressed in Bacillus subtilis RIK 1285, purified from cells
Text: (§1) HPLC of reaction products, Hanes-Woolf plot on TanLpa

[2] = system: T2, COc1cc(C(=O)O[C@@H]2Cc3c(O)cc(O)cc3O[C@@H]2c2cc(O)c(O)c(O)c2)cc(O)c1O; type: biochemical, Lactiplantibacillus paraplantarum
T2 construct: full ORF (1410 bp, 469 residues, 50,708 Da), C-terminal His tag, fused to YbdK signal peptide in pBE-S, expressed in Bacillus subtilis RIK 1285, purified from cells
Text: as §1

[3] = system: T3, O=C(O[C@@H]1Cc2c(O)cc(O)cc2O[C@@H]1c1ccc(O)c(O)c1)c1cc(O)c(O)c(O)c1; type: biochemical, Lactiplantibacillus paraplantarum
T3 construct: full ORF (1410 bp, 469 residues, 50,708 Da), C-terminal His tag, fused to YbdK signal peptide in pBE-S, expressed in Bacillus subtilis RIK 1285, purified from cells
Text: as §1

[4] = system: T4, O=C(O[C@@H]1Cc2c(O)cc(O)cc2O[C@H]1c1cc(O)c(O)c(O)c1)c1cc(O)c(O)c(O)c1; type: biochemical, Lactiplantibacillus paraplantarum
T4 construct: full ORF (1410 bp, 469 residues, 50,708 Da), C-terminal His tag, fused to YbdK signal peptide in pBE-S, expressed in Bacillus subtilis RIK 1285, purified from cells
Text: as §1

[5] = system: T5, O=C(O[C@@H]1Cc2c(O)cc(O)cc2O[C@H]1c1ccc(O)c(O)c1)c1cc(O)c(O)c(O)c1; type: biochemical, Lactiplantibacillus paraplantarum
T5 construct: full ORF (1410 bp, 469 residues, 50,708 Da), C-terminal His tag, fused to YbdK signal peptide in pBE-S, expressed in Bacillus subtilis RIK 1285, purified from cells
Text: as §1

[6] = system: T6, O=C(O[C@@H]1Cc2c(O)cc(O)cc2O[C@@H]1c1cc(O)c(O)c(O)c1)c1cc(O)c(O)c(O)c1; type: biochemical, Lactiplantibacillus paraplantarum
T6 construct: full ORF (1410 bp, 469 residues, 50,708 Da), C-terminal His tag, fused to YbdK signal peptide in pBE-S, expressed in Bacillus subtilis RIK 1285, purified from cells
Text: as §1

[7] = system: T7, O=C(O[C@@H]1Cc2c(O)cc(O)cc2O[C@H]1c1ccc(O)c(O)c1)c1cc(O)c(O)c(O)c1; type: biochemical, Lactiplantibacillus pentosus
T7 construct: full ORF (1413 bp, 470 residues, 51,193 Da), C-terminal His tag, fused to YbdK signal peptide in pBE-S, expressed in Bacillus subtilis RIK 1285, purified from cells
Text: (§2) HPLC of reaction products, Hanes-Woolf plot on TanLpe

[8] = system: T8, O=C(O[C@@H]1Cc2c(O)cc(O)cc2O[C@H]1c1cc(O)c(O)c(O)c1)c1cc(O)c(O)c(O)c1; type: biochemical, Lactiplantibacillus pentosus
T8 construct: full ORF (1413 bp, 470 residues, 51,193 Da), C-terminal His tag, fused to YbdK signal peptide in pBE-S, expressed in Bacillus subtilis RIK 1285, purified from cells
Text: as §2

[9] = system: T9, O=C(O[C@@H]1Cc2c(O)cc(O)cc2O[C@@H]1c1cc(O)c(O)c(O)c1)c1cc(O)c(O)c(O)c1; type: biochemical, Lactiplantibacillus pentosus
T9 construct: full ORF (1413 bp, 470 residues, 51,193 Da), C-terminal His tag, fused to YbdK signal peptide in pBE-S, expressed in Bacillus subtilis RIK 1285, purified from cells
Text: as §2

[10] = system: T10, COc1cc(C(=O)O[C@@H]2Cc3c(O)cc(O)cc3O[C@@H]2c2cc(O)c(O)c(O)c2)cc(O)c1O; type: biochemical, Lactiplantibacillus pentosus
T10 construct: full ORF (1413 bp, 470 residues, 51,193 Da), C-terminal His tag, fused to YbdK signal peptide in pBE-S, expressed in Bacillus subtilis RIK 1285, purified from cells
Text: as §2

COC(=O)c1cc(O)c(O)c(O)c1 [11] = system: T11, COC(=O)c1cc(O)c(O)c(O)c1; type: biochemical, Lactiplantibacillus pentosus
T11 construct: full ORF (1413 bp, 470 residues, 51,193 Da), C-terminal His tag, fused to YbdK signal peptide in pBE-S, expressed in Bacillus subtilis RIK 1285, purified from cells
Text: as §2

[12] = system: T12, O=C(O[C@@H]1Cc2c(O)cc(O)cc2O[C@@H]1c1ccc(O)c(O)c1)c1cc(O)c(O)c(O)c1; type: biochemical, Lactiplantibacillus pentosus
T12 construct: full ORF (1413 bp, 470 residues, 51,193 Da), C-terminal His tag, fused to YbdK signal peptide in pBE-S, expressed in Bacillus subtilis RIK 1285, purified from cells
Text: as §2

[13] = substrate: O=C(O[C@@H]1Cc2c(O)cc(O)cc2O[C@H]1c1cc(O)c(O)c(O)c1)c1cc(O)c(O)c(O)c1; type: biochemical, Lactiplantibacillus plantarum
Text: (§3) HPLC of reaction products, Hanes-Woolf plot on TanLpl

[14] = substrate: COC(=O)c1cc(O)c(O)c(O)c1; type: biochemical, Lactiplantibacillus plantarum
Text: as §3

[15] = substrate: O=C(O[C@@H]1Cc2c(O)cc(O)cc2O[C@@H]1c1ccc(O)c(O)c1)c1cc(O)c(O)c(O)c1; type: biochemical, Lactiplantibacillus plantarum
Text: as §3

[16] = substrate: O=C(O[C@@H]1Cc2c(O)cc(O)cc2O[C@@H]1c1cc(O)c(O)c(O)c1)c1cc(O)c(O)c(O)c1; type: biochemical, Lactiplantibacillus plantarum
Text: as §3

[17] = substrate: COc1cc(C(=O)O[C@@H]2Cc3c(O)cc(O)cc3O[C@@H]2c2cc(O)c(O)c(O)c2)cc(O)c1O; type: biochemical, Lactiplantibacillus plantarum
Text: as §3

[18] = substrate: O=C(O[C@@H]1Cc2c(O)cc(O)cc2O[C@H]1c1ccc(O)c(O)c1)c1cc(O)c(O)c(O)c1; type: biochemical, Lactiplantibacillus plantarum
Text: as §3

TanLpa (Lactiplantibacillus paraplantarum)
Km (COC(=O)c1cc(O)c(O)c(O)c1 [1]): 500 ± 60 µM | kcat (COC(=O)c1cc(O)c(O)c(O)c1 [1]): 72.73 ± 3.34 s⁻¹ | kcat/Km (COC(=O)c1cc(O)c(O)c(O)c1 [1]): 145000 ± 10600 M⁻¹ s⁻¹ | Km [2]: 40 ± 4 µM | kcat [2]: 0.35 ± 0.07 s⁻¹ | kcat/Km [2]: 9020 ± 2280 M⁻¹ s⁻¹ | Km [3]: 60 ± 10 µM | kcat [3]: 11.08 ± 0.44 s⁻¹ | kcat/Km [3]: 195000 ± 21500 M⁻¹ s⁻¹ | Km [4]: 60 ± 2 µM | kcat [4]: 9.2 ± 0.09 s⁻¹ | kcat/Km [4]: 155000 ± 7970 M⁻¹ s⁻¹ | Km [5]: 50 ± 5 µM | kcat [5]: 8.1 ± 0.04 s⁻¹ | kcat/Km [5]: 182000 ± 27700 M⁻¹ s⁻¹ | Km [6]: 60 ± 10 µM | kcat [6]: 14.29 ± 0.82 s⁻¹ | kcat/Km [6]: 261000 ± 46500 M⁻¹ s⁻¹

TanLpe (Lactiplantibacillus pentosus)
Km [7]: 80 ± 4 µM | kcat [7]: 1.48 ± 0.11 s⁻¹ | kcat/Km [7]: 19200 ± 2360 M⁻¹ s⁻¹ | Km [8]: 70 ± 2 µM | kcat [8]: 1.12 ± 0.13 s⁻¹ | kcat/Km [8]: 14300 ± 1950 M⁻¹ s⁻¹ | Km [9]: 60 ± 20 µM | kcat [9]: 0.44 ± 0.02 s⁻¹ | kcat/Km [9]: 7250 ± 2510 M⁻¹ s⁻¹ | Km [10]: 5 ± 0.9 µM | kcat [10]: 0.06 ± 0.02 s⁻¹ | kcat/Km [10]: 10600 ± 1330 M⁻¹ s⁻¹ | Km (COC(=O)c1cc(O)c(O)c(O)c1 [11]): 870 ± 410 µM | kcat (COC(=O)c1cc(O)c(O)c(O)c1 [11]): 15.95 ± 3.13 s⁻¹ | kcat/Km (COC(=O)c1cc(O)c(O)c(O)c1 [11]): 18800 ± 3080 M⁻¹ s⁻¹ | Km [12]: 50 ± 10 µM | kcat [12]: 0.42 ± 0.03 s⁻¹ | kcat/Km [12]: 8630 ± 1170 M⁻¹ s⁻¹

B1: TanLpl (Lactiplantibacillus plantarum) (protein)
chain: MSNRLIFDADWLVPEQVQVAGQAIQYYAARNIQYVQHPVAAIQVLNVFVPAAYLHGSSVNGYQRATAPILMPNTVGGYLPGPADDPQRVTWPTNAGTIQQALKRGYVVVAAGIRGRTTVDKSGQRVGQAPAFIVDMKAAIRYVKYNQGRLPGDANRIITNGTSAGGATSALAGASGNSAYFEPALTALGAAPATDDIFAVSAYCPIHNLEHADMAYEWQFNGINDWHRYQPVAGTTKNGRPKFEPVSGQLTVEEQALSLALKAQFSTYLNQLKLTASDGTHLTLNEAGMGSFRDVVRQLLISSAQTAFDQGTDIHKYAGFVVTGNQVTDLDLSAYLKSLTRMKAVPAFDQLDLTSPENNLFGDATAKAKHFTALAQTRSTVTAQLADAELIQAINPLSYLTTTSSQVAKHWRIRHGAADRDTSFAIPIILAIMLENHGYGIDFALPWDIPHSGDYDLGDLFSWIDGLCQ
notes: full ORF (469 residues, ~50 kDa), C-terminal His tag, fused to YbdK signal peptide in pBE-S, expressed in Bacillus subtilis RIK 1285, purified from cells
Km [13]: 30 ± 8 µM | kcat [13]: 0.89 ± 0.044 s⁻¹ | kcat/Km [13]: 27200 ± 6280 M⁻¹ s⁻¹ | Km [14]: 370 ± 40 µM | kcat [14]: 46.02 ± 0.87 s⁻¹ | kcat/Km [14]: 125000 ± 15400 M⁻¹ s⁻¹ | Km [15]: 30 ± 20 µM | kcat [15]: 1.49 ± 0.19 s⁻¹ | kcat/Km [15]: 52200 ± 25600 M⁻¹ s⁻¹ | Km [16]: 100 ± 10 µM | kcat [16]: 1.12 ± 0.03 s⁻¹ | kcat/Km [16]: 11700 ± 1290 M⁻¹ s⁻¹ | Km [17]: 40 ± 9 µM | kcat [17]: 0.26 ± 0.04 s⁻¹ | kcat/Km [17]: 6040 ± 570 M⁻¹ s⁻¹ | Km [18]: 50 ± 2 µM | kcat [18]: 2.41 ± 0.10 s⁻¹ | kcat/Km [18]: 53600 ± 4620 M⁻¹ s⁻¹
